In paper PMC3433420:
Several values for one entry are separate records, joined by “and”; a condition that tells them apart may be missing. Equal entries are not always repeated. Where two headings read alike, the source gives them in different places.

Legend:
[1] = molecular target: PIK3R3 C-terminal SH2 domain (human); experiment: SPR; Biacore 3000; 6X His SH2 proteins held on a Ni-NTA chip, dye-free peptides in solution, equilibrium
[2] = molecular target: PLCG1 C-terminal SH2 domain (human); experiment: as above
[3] = molecular target: CRKL (Homo sapiens) (UniProt P46109); conditions: cited from earlier work
[4] = molecular target: ABL2 (Homo sapiens) (UniProt P42684); conditions: cited from earlier work
[5] = molecular target: ErbB1 Y900 non-phosphorylated peptide, rhodamine-labelled (human); experiment: fluorescence polarisation; saturation binding in solution: rhodamine peptide fixed at 10 nM, protein titrated 0.002-10 uM, 20 min at room temperature; assay buffer 20 mM HEPES, 100 mM KCl, 0.1% Tween-20, 5 mM DTT, pH 7.8; apparent KD
[6] = molecular target: PIK3R1 N-terminal SH2 domain (human); experiment: SPR; Biacore 3000; 6X His SH2 proteins held on a Ni-NTA chip, dye-free peptides in solution, equilibrium
[7] = molecular target: ABL2 (Homo sapiens) (UniProt P42684); conditions: cited from earlier work; remark: listed apart in the source
[8] = molecular target: BMX (Homo sapiens) (UniProt P51813); conditions: cited from earlier work
[9] = molecular target: YES1 (Homo sapiens) (UniProt P07947); conditions: cited from earlier work
[10] = molecular target: SYK-NC (Homo sapiens) (UniProt P43405); conditions: cited from earlier work
[11] = molecular target: SHB (Homo sapiens) (UniProt Q15464); conditions: cited from earlier work
[12] = molecular target: RASA1-N (Homo sapiens) (UniProt P20936); conditions: cited from earlier work
[13] = molecular target: ABL2 (Homo sapiens) (UniProt P42684); conditions: cited from earlier work; remark: listed apart in the source
[14] = molecular target: TNS1 (Homo sapiens) (UniProt Q9HBL0); conditions: cited from earlier work
[15] = molecular target: CRK (Homo sapiens) (UniProt P46108); conditions: cited from earlier work
[16] = molecular target: CRKL (Homo sapiens) (UniProt P46109); conditions: cited from earlier work; remark: listed apart in the source
[17] = molecular target: PLCG2-NC (Homo sapiens) (UniProt P16885); conditions: cited from earlier work
[18] = molecular target: SYK-N (Homo sapiens) (UniProt P43405); conditions: cited from earlier work
[19] = molecular target: NCK2 (Homo sapiens) (UniProt O43639); conditions: cited from earlier work
[20] = molecular target: SHC1-PTB (Homo sapiens) (UniProt P29353); conditions: cited from earlier work
[21] = molecular target: GRB2 (Homo sapiens) (UniProt P62993); conditions: cited from earlier work
[22] = molecular target: ABL1 (Homo sapiens) (UniProt P00519); conditions: cited from earlier work
[23] = molecular target: ABL2 (Homo sapiens) (UniProt P42684); conditions: cited from earlier work; remark: listed apart in the source
[24] = molecular target: CRK (Homo sapiens) (UniProt P46108); conditions: cited from earlier work; remark: listed apart in the source
[25] = molecular target: RASA1-N (Homo sapiens) (UniProt P20936); conditions: cited from earlier work; remark: listed apart in the source
[26] = molecular target: SYK-NC (Homo sapiens) (UniProt P43405); conditions: cited from earlier work; remark: listed apart in the source
[27] = molecular target: CRKL (Homo sapiens) (UniProt P46109); conditions: cited from earlier work; remark: listed apart in the source
[28] = molecular target: ABL2 (Homo sapiens) (UniProt P42684); conditions: cited from earlier work; remark: listed apart in the source
[29] = molecular target: YES1 (Homo sapiens) (UniProt P07947); conditions: cited from earlier work; remark: listed apart in the source
[30] = molecular target: SRC (Homo sapiens) (UniProt P12931); conditions: cited from earlier work
[31] = molecular target: HSH2D (Homo sapiens) (UniProt Q96JZ2); conditions: cited from earlier work
[32] = molecular target: TNS4 (Homo sapiens) (UniProt Q8IZW8); conditions: cited from earlier work
[33] = molecular target: YES1 SH2 domain (human) (UniProt P07947); experiment: peptide or protein array; SH2/PTB proteins spotted on aldehyde slides, rhodamine peptide titrated in buffer B (20 mM HEPES, 100 mM KCl, 0.1% Tween-20, 5 mM DTT, pH 7.8), 1 h at room temperature; replicate assays
[34] = molecular target: BLK SH2 domain (human) (UniProt P51451); experiment: as above
[35] = molecular target: SYK tandem SH2 domains (human); experiment: as above
[36] = molecular target: SH3BP2 SH2 domain (human) (UniProt P78314); experiment: as above
[37] = molecular target: PLCG1-NC (Homo sapiens) (UniProt P19174); conditions: cited from earlier work
[38] = molecular target: SH2B3 (Homo sapiens) (UniProt Q9UQQ2); conditions: cited from earlier work
[39] = molecular target: VAV2 (Homo sapiens) (UniProt P52735); conditions: cited from earlier work
[40] = molecular target: ABL2 (Homo sapiens) (UniProt P42684); conditions: cited from earlier work; remark: listed apart in the source
[41] = molecular target: SLA2 (Homo sapiens) (UniProt Q9H6Q3); conditions: cited from earlier work
[42] = molecular target: SYK-NC (Homo sapiens) (UniProt P43405); conditions: cited from earlier work; remark: listed apart in the source
[43] = molecular target: SHC1-PTB (Homo sapiens) (UniProt P29353); conditions: cited from earlier work; remark: listed apart in the source
[44] = molecular target: PIK3R3-NC (Homo sapiens) (UniProt Q92569); conditions: cited from earlier work
[45] = molecular target: RASA1-N (Homo sapiens) (UniProt P20936); conditions: cited from earlier work; remark: listed apart in the source
[46] = molecular target: PIK3R2-NC (Homo sapiens) (UniProt O00459); conditions: cited from earlier work
[47] = molecular target: SHC1-PTB (Homo sapiens) (UniProt P29353); conditions: cited from earlier work; remark: listed apart in the source
[48] = molecular target: ABL2 (Homo sapiens) (UniProt P42684); conditions: cited from earlier work; remark: listed apart in the source
[49] = molecular target: SRC (Homo sapiens) (UniProt P12931); conditions: cited from earlier work; remark: listed apart in the source
[50] = molecular target: ErbB2 pY685 phosphopeptide, rhodamine-labelled (human); experiment: fluorescence polarisation; saturation binding in solution: rhodamine peptide fixed at 10 nM, protein titrated 0.002-10 uM, 20 min at room temperature; assay buffer 20 mM HEPES, 100 mM KCl, 0.1% Tween-20, 5 mM DTT, pH 7.8; apparent KD
[51] = molecular target: MET pY1313 phosphopeptide, rhodamine-labelled; experiment: as above
[52] = molecular target: ErbB1 pY801 phosphopeptide, rhodamine-labelled (human); experiment: as above
[53] = molecular target: SYK-N (Homo sapiens) (UniProt P43405); conditions: cited from earlier work; remark: listed apart in the source

Sequence of SHC1-PTB (Homo sapiens) (P29353 483-583): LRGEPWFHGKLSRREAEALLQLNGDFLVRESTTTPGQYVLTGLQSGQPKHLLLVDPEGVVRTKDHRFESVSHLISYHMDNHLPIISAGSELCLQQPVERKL
Sequence of ABL2 (Homo sapiens) (P42684 168-268): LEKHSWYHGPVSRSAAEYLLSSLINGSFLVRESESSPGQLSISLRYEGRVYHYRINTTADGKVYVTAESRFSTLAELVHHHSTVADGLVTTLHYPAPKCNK
Sequence of CRKL (Homo sapiens) (P46109 9-107): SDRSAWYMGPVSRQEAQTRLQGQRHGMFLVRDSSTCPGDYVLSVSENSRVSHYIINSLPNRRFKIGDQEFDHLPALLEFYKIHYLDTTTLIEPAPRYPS
Sequence of RASA1-N (Homo sapiens) (P20936 176-446): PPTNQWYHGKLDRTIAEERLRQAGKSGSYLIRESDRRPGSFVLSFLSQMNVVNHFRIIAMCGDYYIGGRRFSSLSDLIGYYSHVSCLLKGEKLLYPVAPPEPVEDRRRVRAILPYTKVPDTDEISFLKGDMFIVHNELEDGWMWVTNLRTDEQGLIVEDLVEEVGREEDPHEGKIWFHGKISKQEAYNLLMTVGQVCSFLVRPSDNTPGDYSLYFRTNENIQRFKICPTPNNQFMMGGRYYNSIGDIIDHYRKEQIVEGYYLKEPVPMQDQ
Sequence of YES1 (Homo sapiens) (P07947 153-260): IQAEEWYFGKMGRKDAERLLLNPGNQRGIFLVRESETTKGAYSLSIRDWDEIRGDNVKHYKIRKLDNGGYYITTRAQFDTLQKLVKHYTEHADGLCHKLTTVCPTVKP
Sequence of YES1 SH2 domain (human) (P07947 158-255): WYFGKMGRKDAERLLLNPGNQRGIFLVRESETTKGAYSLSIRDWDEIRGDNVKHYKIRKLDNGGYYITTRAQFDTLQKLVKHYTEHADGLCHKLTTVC
Sequence of CRK (Homo sapiens) (P46108 8-123): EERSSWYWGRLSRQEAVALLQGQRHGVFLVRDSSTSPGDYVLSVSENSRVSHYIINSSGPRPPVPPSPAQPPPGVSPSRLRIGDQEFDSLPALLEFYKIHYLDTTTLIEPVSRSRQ
Sequence of SH3BP2 SH2 domain (human) (P78314 457-555): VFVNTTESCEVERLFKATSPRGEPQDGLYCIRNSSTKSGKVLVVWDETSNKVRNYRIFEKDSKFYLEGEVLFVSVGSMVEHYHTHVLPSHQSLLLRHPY
Sequence of BLK SH2 domain (human) (P51451 124-220): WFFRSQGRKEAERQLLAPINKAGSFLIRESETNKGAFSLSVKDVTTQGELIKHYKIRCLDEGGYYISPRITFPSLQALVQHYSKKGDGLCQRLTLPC
Sequence of TNS1 (Homo sapiens) (Q9HBL0 1562-1681): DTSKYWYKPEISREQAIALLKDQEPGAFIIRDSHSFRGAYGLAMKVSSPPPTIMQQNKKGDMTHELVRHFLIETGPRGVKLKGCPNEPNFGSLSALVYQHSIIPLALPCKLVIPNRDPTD
Sequence of ABL1 (Homo sapiens) (P00519 122-222): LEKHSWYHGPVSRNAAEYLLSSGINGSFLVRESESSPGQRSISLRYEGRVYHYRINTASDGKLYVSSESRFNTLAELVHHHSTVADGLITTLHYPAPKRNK
Sequence of HSH2D (Homo sapiens) (Q96JZ2 29-130): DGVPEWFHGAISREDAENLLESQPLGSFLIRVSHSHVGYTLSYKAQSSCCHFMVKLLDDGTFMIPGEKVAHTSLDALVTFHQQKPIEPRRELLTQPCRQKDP
Sequence of PLCG1-NC (Homo sapiens) (P19174 545-761): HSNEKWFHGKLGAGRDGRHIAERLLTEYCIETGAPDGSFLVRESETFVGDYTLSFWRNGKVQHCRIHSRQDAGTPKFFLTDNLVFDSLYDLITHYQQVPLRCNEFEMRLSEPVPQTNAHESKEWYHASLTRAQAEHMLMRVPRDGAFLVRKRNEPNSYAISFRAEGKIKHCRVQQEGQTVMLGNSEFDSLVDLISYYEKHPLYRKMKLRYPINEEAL
Sequence of PIK3R2-NC (Homo sapiens) (O00459 325-721): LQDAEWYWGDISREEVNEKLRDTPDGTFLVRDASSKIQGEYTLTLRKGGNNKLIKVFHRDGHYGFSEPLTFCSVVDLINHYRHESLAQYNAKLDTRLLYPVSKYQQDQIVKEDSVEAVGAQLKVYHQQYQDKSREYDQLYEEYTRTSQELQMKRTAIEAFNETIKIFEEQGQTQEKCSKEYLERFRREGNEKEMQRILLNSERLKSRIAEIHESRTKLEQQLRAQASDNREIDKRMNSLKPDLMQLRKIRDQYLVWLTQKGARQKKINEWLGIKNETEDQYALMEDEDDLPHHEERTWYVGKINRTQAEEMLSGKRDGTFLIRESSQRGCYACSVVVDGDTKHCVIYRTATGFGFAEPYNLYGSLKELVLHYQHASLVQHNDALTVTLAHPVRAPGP
Sequence of SH2B3 (Homo sapiens) (Q9UQQ2 359-467): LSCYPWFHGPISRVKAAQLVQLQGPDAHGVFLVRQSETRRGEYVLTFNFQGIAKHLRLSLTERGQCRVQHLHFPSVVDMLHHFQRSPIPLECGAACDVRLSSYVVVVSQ
Sequence of NCK2 (Homo sapiens) (O43639 280-380): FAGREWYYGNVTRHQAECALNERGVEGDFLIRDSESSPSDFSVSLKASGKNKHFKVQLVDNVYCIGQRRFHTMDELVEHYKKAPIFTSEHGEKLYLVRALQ
Sequence of BMX (Homo sapiens) (P51813 291-397): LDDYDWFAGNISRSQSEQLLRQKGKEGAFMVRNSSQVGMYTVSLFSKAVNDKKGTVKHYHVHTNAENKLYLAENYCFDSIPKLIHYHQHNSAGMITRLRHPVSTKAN
Sequence of GRB2 (Homo sapiens) (P62993 55-157): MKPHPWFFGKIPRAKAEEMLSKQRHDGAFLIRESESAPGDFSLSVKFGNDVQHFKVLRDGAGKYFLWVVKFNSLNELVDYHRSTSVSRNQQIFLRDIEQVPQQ
Sequence of SLA2 (Homo sapiens) (Q9H6Q3 89-196): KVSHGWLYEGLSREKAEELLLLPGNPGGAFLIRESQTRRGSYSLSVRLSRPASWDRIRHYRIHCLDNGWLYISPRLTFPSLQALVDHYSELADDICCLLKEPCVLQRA
Sequence of SHB (Homo sapiens) (Q15464 405-509): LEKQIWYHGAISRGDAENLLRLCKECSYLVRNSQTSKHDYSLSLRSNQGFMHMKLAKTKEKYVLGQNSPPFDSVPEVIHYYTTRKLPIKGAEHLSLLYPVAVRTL
Sequence of TNS4 (Homo sapiens) (Q8IZW8 444-561): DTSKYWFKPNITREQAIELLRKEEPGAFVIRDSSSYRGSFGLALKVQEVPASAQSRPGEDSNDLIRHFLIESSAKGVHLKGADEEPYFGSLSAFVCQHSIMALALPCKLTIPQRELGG
Sequence of PLCG2-NC (Homo sapiens) (P16885 527-740): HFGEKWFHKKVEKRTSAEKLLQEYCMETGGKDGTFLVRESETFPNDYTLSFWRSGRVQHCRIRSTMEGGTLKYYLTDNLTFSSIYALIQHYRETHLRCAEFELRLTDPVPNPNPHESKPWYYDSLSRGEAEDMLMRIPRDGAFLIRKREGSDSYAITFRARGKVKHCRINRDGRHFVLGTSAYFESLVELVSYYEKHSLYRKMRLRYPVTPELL
Sequence of VAV2 (Homo sapiens) (P52735 668-772): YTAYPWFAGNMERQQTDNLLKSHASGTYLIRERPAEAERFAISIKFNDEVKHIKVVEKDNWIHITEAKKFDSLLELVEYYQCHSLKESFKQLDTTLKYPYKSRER

ErbB1 pY900 phosphopeptide, dye-free
Kd [1]: 1.47 µM | Kd [2]: 10.9 µM

…pYRAPTSTId
apparent Kd (screen) [3]: 1.24 µM | apparent Kd (screen) [4]: 1.23 µM

SHC2 PTB domain (from UniProt P98077 1-582) (domain or fragment)
Kd [5]: 5.42 µM

ErbB2 pY685 phosphopeptide, dye-free
Kd [1]: 1.52 µM | Kd [6]: 13.4 µM

…pYQDPHSTAd
apparent Kd (screen) [7]: 0.133 µM | apparent Kd (screen) [8]: 1.07 µM | apparent Kd (screen) [9]: 0.378 µM | apparent Kd (screen) [10]: 0.981 µM | apparent Kd (screen) [11]: 0.991 µM | apparent Kd (screen) [12]: 1.32 µM | apparent Kd (screen) [13]: 0.074 µM | apparent Kd (screen) [14]: 1.28 µM | apparent Kd (screen) [15]: 1.23 µM | apparent Kd (screen) [16]: 2 µM

PIK3R2 tandem SH2 domains (from UniProt O00459 1-728) (domain or fragment)
Kd [5]: 6.93 µM

…pYNADGGKMd
apparent Kd (screen) [17]: 1.14 µM

…pYVREHKDNd
apparent Kd (screen) [18]: 0.559 µM

…pYHNQPLNPd
apparent Kd (screen) [19]: 2 µM | apparent Kd (screen) [20]: 0.321 µM | apparent Kd (screen) [21]: 2 µM | apparent Kd (screen) [22]: 0.523 µM | apparent Kd (screen) [23]: 0.062 µM

…pYMTPMRDKd
apparent Kd (screen) [24]: 0.029 µM | apparent Kd (screen) [25]: 0.027 µM | apparent Kd (screen) [26]: 0.33 µM | apparent Kd (screen) [27]: 0.065 µM | apparent Kd (screen) [28]: 0.018 µM

…pYKGLWIPEd
apparent Kd (screen) [29]: 0.54 µM | apparent Kd (screen) [30]: 0.579 µM

…pYTHQSDVWd
apparent Kd (screen) [31]: 1.13 µM | apparent Kd (screen) [32]: 0.299 µM

ErbB4 pY833 phosphopeptide, dye-free
Kd [2]: 3.46 µM

ErbB4 pY1301 phosphopeptide (18-mer), rhodamine-labelled, for protein microarrays
Kd [33]: 1.37 µM and 4.86 µM | Kd [34]: 1.18 µM and 1.6 µM | Kd [35]: 0.801 µM and 1.17 µM | Kd [36]: 1.18 µM and 1.61 µM

…pYLSEFSLK
apparent Kd (screen) [37]: 2 µM | apparent Kd (screen) [38]: 2 µM | apparent Kd (screen) [39]: 2 µM | apparent Kd (screen) [40]: 0.221 µM | apparent Kd (screen) [41]: 2 µM | apparent Kd (screen) [42]: 1.67 µM | apparent Kd (screen) [43]: 0.024 µM | apparent Kd (screen) [44]: 2 µM | apparent Kd (screen) [45]: 0.709 µM | apparent Kd (screen) [46]: 2 µM

ErbB1 pY978 phosphopeptide, dye-free
Kd [2]: 0.43 µM

…pYLGLDVPV
apparent Kd (screen) [47]: 0.277 µM | apparent Kd (screen) [48]: 0.21 µM

…pYSADPTVFd
apparent Kd (screen) [49]: 0.504 µM

PIK3R1 N-terminal SH2 domain (domain or fragment)
Kd [50]: 2.51 µM | Kd [51]: 0.256 µM | Kd [52]: 6.96 µM

…pYVNEPLYLd
apparent Kd (screen) [53]: 0.006 µM
